Results reported in PMC8879737.
Values joined by “and” are separate entries in the source; they are usually repeats but may differ in a detail not shown here. Equal values may be shown once. Read-outs that look alike come from different tables or passages of the source.

Key:
[1] = biological target: rabbit whole molecule IgG (rabbit); experiment: SPR; Biacore 2000; human IgG Fc and human, rabbit, mouse, guinea pig whole IgG amine coupled to CM5 chips (854, 1348, 1094, 857, 1143 RU); gE monomers and gE/gI heterodimers at 750 μg/mL (Bac gE-1 t411 490 μg/mL) flowed at 30 μL/min in 0.01 M HEPES pH 7.4, 0.15 M NaCl, 0.005% P20; one concentration, RU at the end of association and of dissociation
[2] = biological target: ChromePure human IgG Fc (human); experiment: as above
[3] = biological target: human whole molecule IgG (human); experiment: as above
[4] = biological target: rabbit whole molecule IgG (rabbit); experiment: as above; remark: listed apart in the source
[5] = biological target: ChromePure human IgG Fc (human); experiment: as above; remark: listed apart in the source
[6] = biological target: human whole molecule IgG (human); experiment: as above; remark: listed apart in the source
[7] = biological target: guinea pig whole molecule IgG (guinea pig); experiment: as above
[8] = biological target: gE-2 t417 (HSV-2 strain 333); experiment: SEC-MALS; Superdex 200, 10 mM HEPES, 150 mM NaCl, pH 7.5, 20 °C, 0.5 mL/min; 200 µg injected; conjugate analysis (protein and carbohydrate)

Substance	RU post association [1]	RU post association [2]	RU post association [3]	RU post association [4]	RU post dissociation [4]	RU post association [5]	RU post association [6]	RU post dissociation [6]	RU post association [7]	RU post dissociation [7]	RU post dissociation [5]	stoichiometry N [8]
Bac gE-1 t411 (domain or fragment)	228 RU and 221 RU	80 RU	157 RU and 145 RU	231 RU	75 RU	77 RU	147 RU	32 RU	32 RU	3.3 RU	–	–
gE-1 t419 (domain or fragment)	–	–	–	188 RU	0.6 RU	–	127 RU	-1.9 RU	27 RU	-2.4 RU	–	–
gE-1 t419/gI-1 t269 (complex)	–	–	–	195 RU	170 RU	216 RU	232 RU	189 RU	19 RU	0.8 RU	137 RU	–
gE-2 t24-405/gI-2 t262 (complex)	–	–	–	142 RU	25 RU	95 RU	136 RU	12 RU	–	–	6.6 RU	–
gE-2 t405/gI-2 t262 (complex)	–	–	–	165 RU	34 RU	100 RU	142 RU	14 RU	–	–	7.7 RU	–
gE-2 t414/gI-2 t262 (complex)	–	–	–	75 RU	-0.6 RU	53 RU	79 RU	-0.4 RU	–	–	0.6 RU	–
gE-2 t417/gI-2 t262 (complex)	–	–	53 RU and 133 RU	46 RU	-1.5 RU	–	52 RU	-2.1 RU	–	–	–	–
gI-2 t262 (strain 333) (domain or fragment)	–	–	–	–	–	–	–	–	–	–	–	1
